What was measured:
Assay in all cases: EMSA; little to no detectable; EMSA: PBS pH 7.4 (or KH2PO4/10 mM MgCl2 pH 6.0), 3.6 or 5 uM protein, 25 uM nt DNA, 37 C 15 min per strand, 0.8% agarose 1x TBE; cryo-EM: 20 mM KH2PO4 (Results: 10 mM), 10 mM MgCl2 pH 6.0, 37 C; native MS: 100 mM ammonium acetate pH 7, 37 C
Details in all cases: protein: recombinant, tags: N-terminal 6His vector tag (20 aa) retained, chain copies: 10
LiRecT K111A/K215A = target: T1, LiRecT K111A/K215A (Listeria innocua CLIP 11262, UniProt Q92FL9 1-271, K111A;K215A)
T1 sequence: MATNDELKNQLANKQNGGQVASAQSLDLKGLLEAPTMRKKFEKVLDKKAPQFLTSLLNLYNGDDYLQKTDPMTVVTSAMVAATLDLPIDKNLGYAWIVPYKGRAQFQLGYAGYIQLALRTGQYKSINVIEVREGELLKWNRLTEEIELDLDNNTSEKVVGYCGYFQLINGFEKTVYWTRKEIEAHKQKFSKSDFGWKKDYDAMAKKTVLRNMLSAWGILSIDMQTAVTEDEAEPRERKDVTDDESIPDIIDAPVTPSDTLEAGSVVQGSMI

LiRecT R210A/K215A = target: T2, LiRecT R210A/K215A (Listeria innocua CLIP 11262, UniProt Q92FL9 1-271, R210A;K215A)
T2 sequence: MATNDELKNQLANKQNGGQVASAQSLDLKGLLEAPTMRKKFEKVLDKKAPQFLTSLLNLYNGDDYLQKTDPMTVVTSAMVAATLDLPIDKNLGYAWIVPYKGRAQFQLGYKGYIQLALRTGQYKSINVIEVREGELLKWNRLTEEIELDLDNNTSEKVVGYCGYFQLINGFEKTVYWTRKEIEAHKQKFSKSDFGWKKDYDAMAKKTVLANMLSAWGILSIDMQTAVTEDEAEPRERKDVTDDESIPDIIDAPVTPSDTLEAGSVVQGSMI

LiRecT K206E = target: T3, LiRecT K206E (Listeria innocua CLIP 11262, UniProt Q92FL9 1-271, K206E)
T3 sequence: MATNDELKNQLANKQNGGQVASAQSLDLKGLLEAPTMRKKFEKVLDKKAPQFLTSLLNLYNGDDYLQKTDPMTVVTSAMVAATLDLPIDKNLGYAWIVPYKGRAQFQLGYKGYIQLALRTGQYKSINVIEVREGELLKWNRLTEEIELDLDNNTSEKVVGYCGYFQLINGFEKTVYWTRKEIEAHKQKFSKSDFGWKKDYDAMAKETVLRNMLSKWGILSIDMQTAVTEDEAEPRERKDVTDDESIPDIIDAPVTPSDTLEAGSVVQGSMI

LiRecT K206A/R210A = target: T4, LiRecT K206A/R210A (Listeria innocua CLIP 11262, UniProt Q92FL9 1-271, K206A;R210A)
T4 sequence: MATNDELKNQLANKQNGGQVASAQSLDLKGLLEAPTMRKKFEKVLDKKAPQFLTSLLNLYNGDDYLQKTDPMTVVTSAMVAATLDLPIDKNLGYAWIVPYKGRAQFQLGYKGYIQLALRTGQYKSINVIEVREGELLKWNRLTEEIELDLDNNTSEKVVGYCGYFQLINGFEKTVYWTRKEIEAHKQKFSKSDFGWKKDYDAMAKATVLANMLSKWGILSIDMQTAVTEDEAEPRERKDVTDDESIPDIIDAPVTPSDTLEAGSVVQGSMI

LiRecT K206A/K215A = target: T5, LiRecT K206A/K215A (Listeria innocua CLIP 11262, UniProt Q92FL9 1-271, K206A;K215A)
T5 sequence: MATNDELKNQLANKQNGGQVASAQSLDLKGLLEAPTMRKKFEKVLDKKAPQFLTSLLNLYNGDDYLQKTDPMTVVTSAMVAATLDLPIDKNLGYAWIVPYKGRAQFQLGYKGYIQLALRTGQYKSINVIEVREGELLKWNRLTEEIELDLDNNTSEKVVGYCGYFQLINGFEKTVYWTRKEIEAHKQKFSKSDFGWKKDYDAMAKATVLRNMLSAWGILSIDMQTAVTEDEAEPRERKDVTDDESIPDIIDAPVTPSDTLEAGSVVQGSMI

[1] = label: 5'-Cy3;5'-Cy5, 49 bp, 1 nt 5' overhang at each end

Measured: binding result

B1: Cy3-50mer (ssDNA)
DNA: GCGGATGGCTTAGAGCAGAATCGCCCTGCATAGCTCGATTTTTGCGGATG
no binding: LiRecT K111A/K215A; label: 5'-Cy3, single strand | LiRecT R210A/K215A; label: 5'-Cy3, single strand | LiRecT K206E; label: 5'-Cy3, single strand | LiRecT K206A/R210A; label: 5'-Cy3, single strand | LiRecT K206A/K215A; label: 5'-Cy3, single strand

B2: Cy5-50mer (ssDNA)
DNA: CCATCCGCAAAAATCGAGCTATGCAGGGCGATTCTGCTCTAAGCCATCCG
no binding: LiRecT K111A/K215A; label: 5'-Cy5, single strand | LiRecT R210A/K215A; label: 5'-Cy5, single strand | LiRecT K206E; label: 5'-Cy5, single strand | LiRecT K206A/R210A; label: 5'-Cy5, single strand | LiRecT K206A/K215A; label: 5'-Cy5, single strand

B3: 50-mer duplex intermediate (sequential addition) (dsDNA)
DNA 1: GCGGATGGCTTAGAGCAGAATCGCCCTGCATAGCTCGATTTTTGCGGATG
DNA 2: CCATCCGCAAAAATCGAGCTATGCAGGGCGATTCTGCTCTAAGCCATCCG
no binding: LiRecT K111A/K215A; [1] | LiRecT R210A/K215A; [1] | LiRecT K206E; [1] | LiRecT K206A/R210A; [1] | LiRecT K206A/K215A; [1]

Source: publication PMC9772228, “Structure of a RecT/Redβ family recombinase in complex with a duplex intermediate of DNA annealing”
